What was measured:
Mouse latent myostatin = molecular target: T1, Mouse latent myostatin (mouse, UniProt O08689 26-267; O08689 268-376); test: SPR (BIACORE T200), 37 C, pH5.8, avidity condition (capture 185 RU), 1:1 fit; pH 5.8
T1 construct: signal 1-24
T1 sequence 1: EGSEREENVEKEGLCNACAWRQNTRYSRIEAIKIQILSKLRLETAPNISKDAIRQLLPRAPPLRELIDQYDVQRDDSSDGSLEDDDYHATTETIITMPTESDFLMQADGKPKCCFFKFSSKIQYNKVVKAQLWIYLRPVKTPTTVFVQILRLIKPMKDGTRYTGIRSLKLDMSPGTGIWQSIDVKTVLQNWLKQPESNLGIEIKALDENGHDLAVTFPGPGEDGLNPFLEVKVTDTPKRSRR
T1 sequence 2: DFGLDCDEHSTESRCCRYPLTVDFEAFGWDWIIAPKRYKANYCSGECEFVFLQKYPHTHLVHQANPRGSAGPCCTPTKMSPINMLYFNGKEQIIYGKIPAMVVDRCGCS

Human latent myostatin = molecular target: T2, Human latent myostatin (human, UniProt O14793 25-266; O14793 267-375); test: as above
T2 construct: Biotinylated in the ELISAs; also called human myostatin latent form
T2 sequence 1: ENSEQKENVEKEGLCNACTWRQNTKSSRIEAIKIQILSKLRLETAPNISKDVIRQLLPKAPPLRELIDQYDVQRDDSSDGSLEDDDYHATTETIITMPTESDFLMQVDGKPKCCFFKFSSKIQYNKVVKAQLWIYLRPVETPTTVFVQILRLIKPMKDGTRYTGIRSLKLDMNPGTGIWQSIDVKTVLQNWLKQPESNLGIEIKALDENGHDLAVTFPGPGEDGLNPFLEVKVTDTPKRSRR
T2 sequence 2: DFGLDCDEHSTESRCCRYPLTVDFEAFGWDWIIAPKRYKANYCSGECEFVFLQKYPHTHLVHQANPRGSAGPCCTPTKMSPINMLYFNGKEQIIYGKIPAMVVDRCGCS

B1: MS_M103205H000-SG1/M103202LO00-SK1 (antibody, human IgG1, kappa, V domains shown)
VH: QVTLKESGPVLVKPTETLTLTCTVSGIDLSSYDISWVRQAPGKGLEWVGIISYAGSTYYASWAKGRLTISKDTSKNQVVLTMTNMDPVDTATYYCARGVPAYSTGGDLWGQGTLVTVSS
VL: DIVMTQSPATLSLSPGERATLSCQSSQSVYDNNWLSWFQQKPGQPPKLLIYWASTLASGVPSRFSGSGSGTDFTLTISSLQPEDAATYYCAGGYGGGLYAFGQGTKVEIKR
notes: Humanized MST1032, not pH-dependent; also called MS1032LO00-SG1; Ab001
Mouse latent myostatin
  Kd: 0.0087 nM
  koff: 2.02e-05 s⁻¹
  kon: 2.32e+06 M⁻¹ s⁻¹
Human latent myostatin
  Kd: 0.0797 nM
  koff: 0.000128 s⁻¹
  kon: 1.6e+06 M⁻¹ s⁻¹

From patent publication US20200317768A1 (published 2020)
